Biological target: CIB1N-DBD (CIB1N (1-170) fused to the Gal4 DNA binding domain) (Arabidopsis thaliana) (UniProt Q8GY61)
Test: two-hybrid

Sequence of UniProt Q8GY61 (Q8GY61 1-170): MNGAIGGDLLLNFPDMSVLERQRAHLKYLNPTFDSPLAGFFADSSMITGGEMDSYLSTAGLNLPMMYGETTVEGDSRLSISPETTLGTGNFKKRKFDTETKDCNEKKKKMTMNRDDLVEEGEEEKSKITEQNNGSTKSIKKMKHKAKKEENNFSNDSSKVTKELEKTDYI

- β-Gal Light: 47.1
Substance: CRY2PHR-AD (CRY2PHR fused to the Gal4 activation domain) (from UniProt Q96524 1-498) (domain or fragment)
